Laboratory results published in patent US20230265151A1, “GIP/GLP1 CO-AGONIST COMPOUNDS” (priority 2020, published 2023).
*1 amine or outer side, *2 acyl side, *3 side chain or, on linkers, in order; H or OH if unused. Where no end group is shown, it is not given here. Side-chain parts run from the residue outwards. [ ]: non-standard residue; d: D form. The star is where a group is joined. Decanoyl(10-(4-HOOC-PhO)) = O=C(O)c1ccc(OCCCCCCCCCC(=O)*)cc1; αMePhe(2-F) = C[C@](N)(Cc1ccccc1F)C(=O)O; γGlu = O=C(O)[C@H](CCC(=O)[*:2])N[*:1]; αMeY = C[C@](N)(Cc1ccc(O)cc1)C(=O)O; 4Pal = N[C@@H](Cc1ccncc1)C(=O)O; αMeL = CC(C)C[C@](C)(N)C(=O)O; Lauroyl = CCCCCCCCCCCC(=O)*; Orn = NCCC[C@H](N)C(=O)O; AEEA = NCCOCCOCC(=O)O; Aib = CC(C)(N)C(=O)O

T1: human GIP receptor (human, UniProt P48546 22-466)
T1 sequence (looked up): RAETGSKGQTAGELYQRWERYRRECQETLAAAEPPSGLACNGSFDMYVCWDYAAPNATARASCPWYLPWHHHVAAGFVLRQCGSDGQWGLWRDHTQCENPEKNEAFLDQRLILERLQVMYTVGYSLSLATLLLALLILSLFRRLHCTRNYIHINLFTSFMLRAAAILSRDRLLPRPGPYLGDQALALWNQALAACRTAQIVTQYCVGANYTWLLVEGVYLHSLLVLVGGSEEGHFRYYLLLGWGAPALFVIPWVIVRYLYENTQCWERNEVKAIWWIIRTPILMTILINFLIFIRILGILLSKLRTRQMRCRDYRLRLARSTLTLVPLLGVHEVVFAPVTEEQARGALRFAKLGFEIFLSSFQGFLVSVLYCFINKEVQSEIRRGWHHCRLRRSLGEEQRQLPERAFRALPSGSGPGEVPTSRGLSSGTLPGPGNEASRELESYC

T2: human GIP receptor (human) (UniProt P48546)
T2 sequence (looked up): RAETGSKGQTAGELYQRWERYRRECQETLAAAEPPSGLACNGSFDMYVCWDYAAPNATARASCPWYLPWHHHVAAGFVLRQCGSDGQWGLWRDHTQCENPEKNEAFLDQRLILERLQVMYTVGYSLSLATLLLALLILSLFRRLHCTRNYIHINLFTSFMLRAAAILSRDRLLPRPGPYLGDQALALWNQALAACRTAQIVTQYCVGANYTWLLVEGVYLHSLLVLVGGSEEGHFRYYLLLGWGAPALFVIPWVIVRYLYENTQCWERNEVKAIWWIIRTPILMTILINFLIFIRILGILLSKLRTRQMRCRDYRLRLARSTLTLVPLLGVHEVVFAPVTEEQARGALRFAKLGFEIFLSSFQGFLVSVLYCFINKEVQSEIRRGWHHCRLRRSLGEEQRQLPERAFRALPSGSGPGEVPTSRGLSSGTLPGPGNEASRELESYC

B1: Example 409 (peptide)
peptide: YXEGTXTSDYXIXLDXKAQXKFIXXLIXGGPSSGAPPPS
modifications: Y-Aib-EGT-αMeF(2F)-TSDY-Aib-I-αMeL-LD-Orn-K((2-[2-(2-Amino-ethoxy)-ethoxy]-acetyl)2-(γ-Glu)-(10-(4-carboxyphenoxy)decanoyl))AQ-Aib-K((2-[2-(2-Amino-ethoxy)-ethoxy]-acetyl)2-(γ-Glu)-(10-(4-carboxyphenoxy)decanoyl))FI-(D-Glu)-αMeY-LI-Orn-GGPSSGAPPPS-NH2
B2: Example 419 (peptide)
peptide: YXEGTXTSDXXIXLDXKAQXTFIXXLIKGGPSSGAPPPS
modifications: Y-Aib-EGT-αMeF(2F)-TSD-4Pal-Aib-I-αMeL-LD-Orn-K((2-[2-(2-Amino-ethoxy)-ethoxy]-acetyl)2-(γ-Glu)-CO-(CH2)10-CH3)AQ-Aib-TFI-(D-Glu)-αMeY-LIK((2-[2-(2-Amino-ethoxy)-ethoxy]-acetyl)2-(γ-Glu)-CO-(CH2)10-CH3)GGPSSGAPPPS-NH2
B3: Example 426 (peptide)
peptide: YXEGTXTSDXXIXLDXKAQXKFIXXLIEGGPSSGAPPPS
modifications: Y-Aib-EGT-αMeF(2F)-TSD-4Pal-Aib-I-αMeL-LD-Orn-K((2-[2-(2-Amino-ethoxy)-ethoxy]-acetyl)-(γ-Glu)-CO-(CH2)10-CH3)AQ-Aib-K((2-[2-(2-Amino-ethoxy)-ethoxy]-acetyl)-(γ-Glu)-CO-(CH2)10-CH3)FI-(D-Glu)-αMeY-LIEGGPSSGAPPPS-NH2
B4: Example 430 (peptide)
peptide: YXEGTXTSDXXIXLDXKAQXKXIXXLIEGGPSSGAPPPS
modifications: not fully specified; Y-Aib-EGT-αMeF(2F)-TSD-4Pal-Aib-I-αMeL-LD-Orn-K((2-[2-(2-Amino-ethoxy)-ethoxy]-acetyl)2-(γ Glu)-CO-(CH2)10H3)AQ-Aib-K((2-[2-(2-Amino-ethoxy)-ethoxy]-acetyl)2-(γGlu)-CO-(CH2)10C3)-αMeFI-(D-Glu)-αMeY-LIEGGPSSGAPPPS-NH2
B5: Example 421 (peptide)
peptide: YXEGTXTSDKXIXLDXKAQXEFIXXLIEGGPSSGAPPPS
modifications: Y-Aib-EGT-αMeF(2F)-TSDK((2-[2-(2-Amino-ethoxy)-ethoxy]-acetyl)3-(γ-Glu)-CO-(CH2)10-CH3)-Aib-I-αMeL-LD-Orn-K((2-[2-(2-Amino-ethoxy)-ethoxy]-acetyl)3-(γ-Glu)-CO-(CH2)10-CH3)AQ-Aib-EFI-(D-Glu)-αMeY-LIEGGPSSGAPPPS-NH2
B6: Example 429 (peptide)
peptide: YXEGTXTSDKXIXLDXKAQXEXIXXLIEGGPSSGAPPPS
modifications: Y-Aib-EGT-αMeF(2F)-TSDK((2-[2-(2-Amino-ethoxy)-ethoxy]-acetyl)2-(γ-Glu)-CO-(CH2)10-CH3)-Aib-I-αMeL-LD-Orn-K((2-[2-(2-Amino-ethoxy)-ethoxy]-acetyl)2-(γ-Glu)-CO-(CH2)10-CH3)AQ-Aib-E-αMeF-I-(D-Glu)-αMeY-LIEGGPSSGAPPPS-NH2
B7: Example 432 (peptide)
peptide: YXEGTXTSDKXIXLDXKAQXXFIXXLIEGGPSSGAPPPS
modifications: Y-Aib-EGT-αMeF(2F)-TSDK((2-[2-(2-Amino-ethoxy)-ethoxy]-acetyl)3-(γ-Glu)-CO-(CH2)10-CH3)-Aib-I-αMeL-LD-Orn-K((2-[2-(2-Amino-ethoxy)-ethoxy]-acetyl)3-(γ-Glu)-CO-(CH2)10-CH3)AQ-Aib-Orn-FI-(D-Glu)-αMeY-LIEGGPSSGAPPPS-NH2

Key:
Experiment in all cases: cell-based or functional assay
human GIP receptor = molecular target: T1, human GIP receptor
human GLP-1 receptor = human GLP-1 receptor (human, UniProt P43220 24-463)
human glucagon receptor = human glucagon receptor (human, UniProt P47871 26-477)
Chain of human glucagon receptor (P47871 26-477): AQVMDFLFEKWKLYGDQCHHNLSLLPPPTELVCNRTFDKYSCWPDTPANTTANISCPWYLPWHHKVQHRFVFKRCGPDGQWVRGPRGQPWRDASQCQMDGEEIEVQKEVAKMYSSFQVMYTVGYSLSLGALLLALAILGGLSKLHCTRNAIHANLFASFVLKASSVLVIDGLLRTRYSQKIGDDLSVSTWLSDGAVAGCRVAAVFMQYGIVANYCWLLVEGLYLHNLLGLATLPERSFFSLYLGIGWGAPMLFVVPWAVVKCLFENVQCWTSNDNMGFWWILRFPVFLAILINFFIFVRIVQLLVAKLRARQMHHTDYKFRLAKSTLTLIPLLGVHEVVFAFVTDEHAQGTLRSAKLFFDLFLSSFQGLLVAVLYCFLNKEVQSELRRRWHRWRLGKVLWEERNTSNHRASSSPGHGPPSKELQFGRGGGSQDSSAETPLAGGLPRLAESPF

[1] = molecular target: T2, human GIP receptor (human)
[2] = molecular target: human glucagon receptor (human) (UniProt P47871)
hGLP-1R = hGLP-1R (Homo sapiens, UniProt P43220)

Row | Binder | cAMP EC50 (1.0% HSA) (human GIP receptor) | cAMP Emax (1.0% HSA) (human GIP receptor) | cAMP EC50 (1.0% HSA) (human GLP-1 receptor) | cAMP Emax (1.0% HSA) (human GLP-1 receptor) | cAMP EC50 (1.0% HSA) (human glucagon receptor) | cAMP EC50 [1] | cAMP Emax [1] | cAMP EC50 [2] | cAMP EC50 (hGLP-1R) | cAMP Emax (hGLP-1R)
1 | Y[Aib]EGT[αMePhe(2-F)]TSDV[Aib]I[αMeL]LD[Orn]K([AEEA-AEEA-γGlu-Decanoyl(10-(4-HOOC-PhO))])AQ[Aib]K([AEEA-AEEA-γGlu-Decanoyl(10-(4-HOOC-PhO))])FI[dE][αMeY]LI[Orn]GGPSSGAPPPS-NH2 [Example 410] | 1.28 nM | 86.4% | 11 nM | 93.1% | > 9950 nM | 0.0118 nM | 99.1% | > 9950 nM | 0.251 nM | 94%
2 | Y[Aib]EGT[αMePhe(2-F)]TSDK([AEEA-AEEA-γGlu-Lauroyl])[Aib]I[αMeL]LD[Orn]K([AEEA-AEEA-γGlu-Lauroyl])AQ[Aib][4Pal]FI[dE][αMeY]LIEGGPSSGAPPPS-NH2 [Example 415] | 0.492 nM | – | 5.72 nM | – | > 9950 nM | 0.00991 nM | 101% | > 9950 nM | 0.122 nM | 109%
3 | B1 | 0.537 nM | 84% | 8.05 nM | 97.7% | > 9950 nM | 0.00928 nM | 99.2% | > 9950 nM | 0.188 nM | 103%
4 | B2 | 0.44 nM | – | 7.19 nM | 97.3% | > 9950 nM | 0.00958 nM | 101% | > 9950 nM | 0.132 nM | 113%
5 | B3 | 3.88 nM | 91.2% | 29.7 nM | – | > 9950 nM | 0.0191 nM | 93.3% | > 9950 nM | 0.206 nM | 97.2%
6 | B4 | 1.09 nM | 91.5% | 26.8 nM | 88.5% | > 9950 nM | 0.0175 nM | 107% | > 9950 nM | 0.342 nM | 93.1%
7 | B5 | 0.164 nM | 98% | 2.01 nM | – | > 9950 nM | 0.00618 nM | 100% | > 9950 nM | 0.057 nM | 101%
8 | B6 | 1.03 nM | 93.3% | 17.3 nM | – | > 9950 nM | 0.00799 nM | 108% | > 9950 nM | 0.116 nM | 116%
9 | B7 | 0.0875 nM | – | 1.28 nM | – | > 9950 nM | 0.00602 nM | – | > 9950 nM | 0.0549 nM | 106%
